Where a chain is given by its changes, count along the chain named. Names and notes keep the numbering of the source.
T1: FcgRIIa H extracellular domain with C-terminal His tag (human, UniProt P12318 34-217)
T1 construct: extracellular domain; also called FcγRIIa H; FcγRIIa type H; not shown: His tag attached to the C terminus
T1 sequence (looked up): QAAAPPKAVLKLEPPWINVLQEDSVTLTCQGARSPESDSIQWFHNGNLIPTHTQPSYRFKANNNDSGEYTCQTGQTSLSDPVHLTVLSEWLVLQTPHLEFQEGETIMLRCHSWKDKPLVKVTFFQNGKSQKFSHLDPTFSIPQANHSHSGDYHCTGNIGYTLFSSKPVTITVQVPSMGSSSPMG

T2: FcgRIIa R extracellular domain with C-terminal His tag (human, UniProt P12318 34-217)
T2 construct: extracellular domain; also called FcγRIIa R; FcγRIIa type R; not shown: His tag attached to the C terminus
T2 sequence (looked up): T1 sequence (looked up) with H134R

T3: FcgRIIb extracellular domain with C-terminal His tag (human, UniProt P31994 43-217)
T3 construct: extracellular domain; also called FcγRIIb; not shown: His tag attached to the C terminus
T3 sequence (looked up): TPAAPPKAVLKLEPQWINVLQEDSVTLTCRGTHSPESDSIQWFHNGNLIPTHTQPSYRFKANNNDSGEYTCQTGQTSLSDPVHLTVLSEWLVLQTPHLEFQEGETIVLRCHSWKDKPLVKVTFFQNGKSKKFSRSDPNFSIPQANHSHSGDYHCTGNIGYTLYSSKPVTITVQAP

B1: H240-Kn061/H240-Hl071/L73-k0 variant with F241L introduced into H240-Hl071 (antibody, human IgG1, kappa)
heavy 1: QDQLVQSGAEVKKPGASVKVSCKASGFNIKDTYIQWVRQAPGQGLEWMGRIDPLRKQTKYREKFEGRVTITADTSTNTAYMELSSLRSEDTAVYYCVRSGREFDYWGQGTLVTVSSASTKGPSVFPLAPSSKSTSGGTAALGCLVKDYFPEPVTVSWNSGALTSGVHTFPAVLQSSGLYSLSSVVTVPSSSLGTQTYICNVNHKPSNTKVDKKVEPKSCDKTHTCPPCPAPEYYWGPSVFLFPPKPKDTLMISRTPEVTCVVVDVSDEDPEVKFNWYVDGVEVHNAKTKPREEQYNATYRVVSVLTVLHQDWLNGKEYKCKVSNKALPAPIEKTISKAKGQPREPQVCTLPPSRDELTKNQVSLWCLVKGFYPSDIAVEWESNGQPENNYKTTPPVLDSDGSFFLYSKLTVDKSRWQQGNVFSCSVMHEALHNHYTQKSLSLSP
heavy 2: QDQLVQSGAEVKKPGASVKVSCKASGFNIKDTYIQWVRQAPGQGLEWMGRIDPLRKQTKYREKFEGRVTITADTSTNTAYMELSSLRSEDTAVYYCVRSGREFDYWGQGTLVTVSSASTKGPSVFPLAPSSKSTSGGTAALGCLVKDYFPEPVTVSWNSGALTSGVHTFPAVLQSSGLYSLSSVVTVPSSSLGTQTYICNVNHKPSNTKVDKKVEPKSCDKTHTCPPCPAPELLGGPSVLLFPPKPKDTLMISRTPEVTCVVVDVSHEDPEVKFNWYVDGVEVHNAKTKPREEQYNSTYRVVSVLTVLHQDWLNGKEYKCKVSNDALPMPIEETISKAKGQPREPQVYTLPPSRCELTKNQVSLSCAVKGFYPSDIAVEWESNGQPENNYKTTPPVLDSDGSFFLVSKLTVDKSRWQQGNVFSCSVMHEALHNHYTQKSLSLSP
light: DIQMTQSPSSLSASVGDRVTITCRASQDIHKYIAWYQQKPGQAPRLLIQYTSTLQPGVPSRFSGSGSGTDYTFTISSLQPEDIATYYCLQYEQLRTFGGGTKVEIKRTVAAPSVFIFPPSDEQLKSGTASVVCLLNNFYPREAKVQWKVDNALQSGNSQESVTEQDSKDSTYSLSSTLTLSKADYEKHKVYACEVTHQGLSSPVTKSFNRGEC
notes: Point variant made with H240-Kn061/H240-Hl071/L73-k0 as template; position by EU numbering; also called H240-Hl071 F241L
B2: H240-Kn061/H240-Hl071/L73-k0 variant with F241M introduced into H240-Hl071 (antibody, human IgG1, kappa)
heavy 1: B1 heavy 1
heavy 2: B1 heavy 2 with L240M
light: B1 light
notes: Point variant made with H240-Kn061/H240-Hl071/L73-k0 as template; position by EU numbering; also called H240-Hl071 F241M
B3: H240-Kn061/H240-Hl071/L73-k0 variant with L235F introduced into H240-Hl071 (antibody, human IgG1, kappa)
heavy 1: B1 heavy 1
heavy 2: B1 heavy 2 with L234F, L240F
light: B1 light
notes: Point variant made with H240-Kn061/H240-Hl071/L73-k0 as template; position by EU numbering; also called H240-Hl071 L235F
B4: H240-Kn061/H240-Hl071/L73-k0 variant with V240A introduced into H240-Hl071 (antibody, human IgG1, kappa)
heavy 1: B1 heavy 1
heavy 2: B1 heavy 2 with V239A, L240F
light: B1 light
notes: Point variant made with H240-Kn061/H240-Hl071/L73-k0 as template; position by EU numbering; also called H240-Hl071 V240A

molecular target: T1, FcgRIIa H extracellular domain with …; experiment: SPR (Biacore) KD ratio against the template H240-Kn061/H240-Hl071/L73-k0
Procedure: (§1) The antibodies were assessed for the binding to each FcgR. […] The resultant value was defined as relative KD, and used as an assessment indicator.
(§2) Analysis of interaction between obj ective antibody and the FcγR was carried out using Biacore T100 (GE Healthcare), Biacore T200, Biacore A100, and Biacore 4000. HBS-EP+ (GE Healthcare) was used as the running buffer, and the measurement temperature was set to 25° C. Chips produced by immobilizing the antigen peptide by the amine coupling method to a Series S sensor Chip CM5 (GE Healthcare), chips produced by allowing preliminarily biotinylated antigen peptides to interact with and immobilize onto a Series S Sensor Chip SA (certified) (GE Healthcare), chips produced by immobilizing Protein L (ACTIGEN, BioVision) to Series S Sencor Chip CM5 (GE Healthcare), or chips produced by immobilizing Protein A/G (Thermo Scientific) to Series S Sencor Chip CM5 (GE Healthcare) were used. Antibodies of interest were captured onto these chips, and allowed to interact to each FcγR diluted with running buffer.

Compared with B1, B2 is lower in “relative KD (KD of H240-Kn061/H240-Hl071/L73-k0 / KD of variant)” value: 1.2 for the first, 1.1 for the second.

First: B3
Second: B4
The “relative KD (KD of H240-Kn061/H240-Hl071/L73-k0 / KD of variant)” value of the first is lower: 1.1 for the first, 1.2 for the second.

molecular target: T4, FcgRIIIa F extracellular domain with C-terminal His tag (human, UniProt P08637 17-208); experiment: as above
T4 construct: extracellular domain; also called FcγRIIIa F; FcγRIIIa (F158); not shown: His tag attached to the C terminus
T4 sequence (P08637 17-208): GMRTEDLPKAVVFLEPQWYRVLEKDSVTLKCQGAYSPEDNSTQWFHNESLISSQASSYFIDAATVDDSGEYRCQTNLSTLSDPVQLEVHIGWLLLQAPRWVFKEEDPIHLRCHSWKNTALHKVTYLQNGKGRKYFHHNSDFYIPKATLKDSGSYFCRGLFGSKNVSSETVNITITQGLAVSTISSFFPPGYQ
Procedure: as §1, §2

B1 and B2 are the same in “relative KD (KD of H240-Kn061/H240-Hl071/L73-k0 / KD of variant)” value: 1.3 for the first, 1.3 for the second.

Compared with B3, B4 is lower in “relative KD (KD of H240-Kn061/H240-Hl071/L73-k0 / KD of variant)” value: 1.9 for the first, 1.3 for the second.

molecular target: T2, FcgRIIa R extracellular domain with …; experiment: as above
Procedure: as §1, §2

Compared with B1, B2 is higher in “relative KD (KD of H240-Kn061/H240-Hl071/L73-k0 / KD of variant)” value: 1.2 for the first, 1.3 for the second.

Going from B3 to B4, the “relative KD (KD of H240-Kn061/H240-Hl071/L73-k0 / KD of variant)” value falls from 1.2 to 1.

molecular target: T3, FcgRIIb extracellular domain with …; experiment: as above
Procedure: as §1, §2

Compared with B1, B2 is higher in “relative KD (KD of H240-Kn061/H240-Hl071/L73-k0 / KD of variant)” value: 0.8 for the first, 0.9 for the second.

B3 and B4 are the same in “relative KD (KD of H240-Kn061/H240-Hl071/L73-k0 / KD of variant)” value: 1 for the first, 1 for the second.

molecular target: T5, FcgRIIIa V extracellular domain with C-terminal His tag (human, UniProt P08637 17-208); experiment: as above
T5 construct: extracellular domain; also called FcγRIIIa V; FcγRIIIa (V158); not shown: His tag attached to the C terminus
T5 sequence (P08637 17-208 F176V): as the sequence (P08637 17-208) above, with F160V counted along it
Procedure: as §1, §2

B1 and B2 are the same in “relative KD (KD of H240-Kn061/H240-Hl071/L73-k0 / KD of variant)” value: 1.3 for the first, 1.3 for the second.

First: B3
Second: B4
The “relative KD (KD of H240-Kn061/H240-Hl071/L73-k0 / KD of variant)” value of the first is lower: 1.6 for the first, 1.7 for the second.
